Where a chain is given by its changes, count along the chain named. Names may count otherwise.
How the values were obtained:
[1] = Thermostability assay of detergent-solubilised βAR34-424 and mutants expressed in E. coli ([3H]-DHA binding after heating 30 min); conditions: for increase in Tm compared to βAR34-424 (native protein) / Tm (° C.): DDM-solubilised; for increase in Tm compared to βAR34-424 (native protein): heated without ligand; for Tm (° C.): heated 30 min without ligand, then [3H]-DHA binding, E. coli, mean ± S.E. from duplicates
Method: To determine Tm in the absence of ligand (apo-state, discontinuous lines), detergent-solubilised receptors were incubated for 30 minutes at the temperatures indicated before carrying out the binding assay. […] Data points are from duplicates measurements in a representative experiment.
Binding assays were performed using [^3H]-dihydroalprenolol (DHA) as radioligand as described under “Methods”. Samples were heated for 30 minutes at different temperatures before the assay. […] Data points are from duplicates of one single experiment. This experiment has been repeated several times with similar results.
Expression of βAR and the mutants was performed in XL10 cells (Stratagene). Cultures of 50 ml of 2×TY medium containing ampicillin (100 μg/ml) were grown at 37° C. with shaking until OD600=3 and then induced with 0.4 mM IPTG. Induced cultures were incubated at 25° C. for 4 h and then cells were harvested by centrifugation at 13,000×g for 1 min (aliquots of 2 ml) and stored at −20° C. For the assays, cells were broken by freeze-thaw (five cycles), resuspended in 500 μl of buffer [20 mM Tris pH 8, 0.4 M NaCl, 1 mM EDTA and protease inhibitors (Complete™, Roche)]. After an incubation for 1 h at 4° C. with 100 μg/ml lysozyme and DNase I (Sigma), samples were solubilized with 2% DDM on ice for 30 minutes. Insoluble material was removed by centrifugation (15,000×g, 2 min, 4° C.) and the supernatant was used directly in radioligand binding assays.
Single point binding assays contained 20 mM Tris pH 8, 0.4 M NaCl, 1 mM EDTA, 0.1% DDM (or corresponding detergent) with 50 nM [^3H]-DHA and 20-100 μg membrane protein in a final volume of 120 μl; equilibration was for 1 h at 4° C. Thermostability was assessed by incubating the binding assay mix, with or without [^3H]-DHA at the specified temperature for 30 minutes; reactions were placed on ice and [^3H]-DHA added as necessary and equilibrated for a further hour. […] Radioactivity was counted on a Beckman LS6000 liquid scintillation counter and data were analyzed by nonlinear regression using Prism software (GraphPad).

[2] = Thermostability of solubilised adenosine A2a receptor and mutants (radioligand binding after or during heating); assay type: physicochemical
Source text: FIG. 12 Flow chart showing the two different assay formats of ligand (+) and ligand (−) used to determine receptor thermostablity.
• 1. 315 site-directed mutants made between residues 2-316 of A2aR. • 2. All of these mutants have been assayed for thermostability using an assay measuring agonist and antagonist binding after the heating step (Ligand(−) format as described in FIG. 12). • a. […] Mutations have been combined to generate mutants in a putative antagonist conformation. Wildtype A2aR has a Tm of 31° C. with ZM241385 bound. • a. Rant17 A54L+K122A+L235A Tm 48° C. (ZM241385 bound) • b. Rant19 A54L,T88A,V239A+A204L Tm 47° C. (ZM241385 bound) • c. Rant21 A54L,T88A,V239A+K122A Tm 49° C. (ZM241385 bound) • 4. Mutations from the agonist screen have been combined, but have led to only a very low level of improvement in Tm of +2° C.

[3] = Stability of wild-type and mutant A2aR in different detergents; assay type: physicochemical
[4] = 1% DDM (no glycerol), apo-state, S.D. <1° C.
[5] = 1% DDM (no glycerol), ligand-occupied state, S.D. <1° C.
[6] = 0.3% NG, † = receptor too unstable to determine the Tm
[7] = 0.6% OG, † = receptor too unstable to determine the Tm

Molecule: M90A: βAR34-424 point mutant M90A
- increase in Tm compared to βAR34-424 (native protein) [1]: 8 °C

Molecule: Y227A: βAR34-424 point mutant Y227A
- increase in Tm compared to βAR34-424 (native protein) [1]: 8 °C

Molecule: m4-7: βAR34-424 with G67A, G98A, V230A
- Tm (° C.) ([1]; Table 1): 38.0 ± 1.2 °C
- further increase in Tm on adding one mutation to the preceding mutant ([1]; m4-1 to m4-7 to m4-2, m18 to m23): 2 °C

Molecule: m6-4: βAR34-424 with R68S, Y227A, A234L, A282L
- Tm (° C.) ([1]; Table 1): 41.6 ± 0.1 °C

Molecule: m6-5: βAR34-424 with R68S, A234L, A282L, A334L
- Tm (° C.) ([1]; Table 1): 41.9 ± 0.5 °C

Molecule: m6-9: βAR34-424 with R68S, Y227A, A234L, A282L, A334L
- Tm (° C.) ([1]; Table 1): 43.7 ± 0.4 °C

Molecule: m6-10: βAR34-424 with R68S, Y227A, A282L, A334L
- Tm (° C.) ([1]; Table 1): 47.4 ± 1.1 °C

Molecule: m6-11: βAR34-424 with R68S, A282L, A334L
- Tm (° C.) ([1]; Table 1): 39.1 ± 0.5 °C

Molecule: m7-1: βAR34-424 with M90V, A282L, F338M
- Tm (° C.) ([1]; Table 1): 43.0 ± 0.8 °C

Molecule: m7-2: βAR34-424 with M90V, A282L
- Tm (° C.) ([1]; Table 1): 38.9 ± 0.6 °C

Molecule: m7-5: βAR34-424 with M90V, Y227A
- increase in Tm compared to βAR34-424 (native protein) [1]: 13 °C
- Tm (° C.) ([1]; Table 1): 45.2 ± 1.0 °C

Molecule: m7-6: βAR34-424 with M90V, I129V
- Tm (° C.) ([1]; Table 1): 40.0 ± 0.6 °C

Molecule: m7-7: βAR34-424 with M90V, Y227A, F338M
- Tm (° C.) ([1]; Table 1): 45.2 ± 2.0 °C

Molecule: m10-4: βAR34-424 with R68S, M90V, V230A, A334L
- Tm (° C.) ([1]; Table 1): 46.9 ± 1.0 °C

Molecule: m10-8: βAR34-424 with R68S, M90V, V230A, F327A, A334L
- Tm (° C.) ([1]; Table 1): 47.3 ± 1.4 °C

Molecule: m17: βAR34-424 with R68S, M90V, Y227A, V230A, F327A, A334L
- Tm (° C.) ([1]; Table 2): 48.2 ± 1.4 °C

Molecule: m18: βAR34-424 with R68S, M90V, Y227A, V230A, A282L, F327A, F338M
- Tm (° C.) ([1]; Table 2): 49.6 °C

Molecule: m19: βAR34-424 with R68S, M90V, Y227A, A282L, F327A, F338M as printed (same as m23)
- Tm (° C.) ([1]; Table 2): 49.0 ± 0.8 °C

Molecule: m20: βAR34-424 with R68S, M90V, F327A, A334L
- Tm (° C.) ([1]; Table 2): 48.4 ± 0.7 °C

Molecule: m21: βAR34-424 with R68S, M90V, Y227A, F327A, A334L
- Tm (° C.) ([1]; Table 2): 47.0 ± 1.3 °C

Molecule: wt: wild-type human adenosine A2a receptor (A2aR)
- Tm (° C.) − agonist [2, 4]: 21 °C
- Tm (° C.) − antagonist [2, 4]: 31 °C
- Tm (° C.) + agonist [2, 5]: 29 °C
- Tm (° C.) + antagonist [2, 5]: 32 °C
- Tm (ZM241385 bound) [2]: 31 °C
- Tm (° C.) Agonist-binding ([3]; 0.003% LDAO): 28 °C
- Tm (° C.) Antagonist-binding ([3]; 0.003% LDAO): 32 °C
- Tm (° C.) Agonist-binding ([3]; 0.006% FC12): 37 °C
- Tm (° C.) Antagonist-binding ([3]; 0.006% FC12): 43 °C
- Tm (° C.) Agonist-binding ([3]; 0.01% DDM): 27 °C
- Tm (° C.) Antagonist-binding ([3]; 0.01% DDM): 25 °C
- Tm (° C.) Agonist-binding ([3]; 0.1% DM): 23 °C
- Tm (° C.) Antagonist-binding ([3]; 0.1% DM): 10 °C
- Tm (° C.) Agonist-binding [3, 6]: †
- Tm (° C.) Antagonist-binding [3, 6]: †
- Tm (° C.) Agonist-binding ([3]; 0.3% NM): 22 °C
- Tm (° C.) Antagonist-binding ([3]; 0.3% NM): <4 °C
- Tm (° C.) Agonist-binding ([3]; 0.6% OG): <9 °C
- Tm (° C.) Antagonist-binding [3, 7]: †

B1: Rant 21: A2aR with A54L, T88A, V239A+K122A (protein, UniProt P29274 1-412, looked up, variant A54L T88A V239A K122A)
Adenosine receptor A2a: MPIMGSSVYITVELAIAVLAILGNVLVCWAVWLNSNLQNVTNYFVVSLAAADILVGVLAIPFAITISTGFCAACHGCLFIACFVLVLAQSSIFSLLAIAIDRYIAIRIPLRYNGLVTGTRAAGIIAICWVLSFAIGLTPMLGWNNCGQPKEGKNHSQGCGEGQVACLFEDVVPMNYMVYFNFFACVLVPLLLMLGVYLRIFLAARRQLKQMESQPLPGERARSTLQKEVHAAKSLAIIAGLFALCWLPLHIINCFTFFCPDCSHAPLWLMYLAIVLSHTNSVVNPFIYAYRIREFRQTFRKIIRSHVLRQQEPFKAAGTSARVLAAHGSDGEQVSLRLNGHPPGVWANGSAPHPERRPNGYALGLVSGGSAQESQGNTGLPDVELLSHELKGVCPEPPGLDDPLAQDGAGVS
- Tm (° C.) − antagonist [2, 4]: 41 °C
- Tm (° C.) + antagonist [2, 5]: 49 °C
- Tm (ZM241385 bound) [2]: 49 °C
- Tm (° C.) Antagonist-binding ([3]; 0.003% LDAO): 42 °C
- Tm (° C.) Antagonist-binding ([3]; 0.006% FC12): 49 °C
- Tm (° C.) Antagonist-binding ([3]; 0.01% DDM): 39 °C
- Tm (° C.) Antagonist-binding ([3]; 0.1% DM): 28 °C
- Tm (° C.) Antagonist-binding [3, 6]: 22 °C
- Tm (° C.) Antagonist-binding ([3]; 0.3% NM): 25 °C
- Tm (° C.) Antagonist-binding [3, 7]: 23 °C

B2: Rant 5: A2aR with A54L/T88A/V239A (protein, UniProt P29274 1-412, looked up, variant A54L T88A V239A)
Adenosine receptor A2a: B1 Adenosine receptor A2a with A122K
- Tm (° C.) − antagonist [2, 4]: 42 °C
- Tm (° C.) + antagonist [2, 5]: 46 °C

— patent US8748182B2, “Mutant proteins and methods for producing them” (Heptares Therapeutics Limited, priority 2007, dated 2014)
